Experimental findings from paper PMC8631942 are described below.

The target of experiment [1] is pre-phosphorylated His10-BTLA ICD (aa 190-289) triple-tyrosine-mutant FFYF (human) (UniProt Q7Z6A9). As to the kind of experiment: SPR; OpenSPR (Nicoya); pre-phosphorylated His10-tagged PD-1 ICD or BTLA ICD tyrosine mutant immobilised on a Ni sensor chip (about 1500 RU); SH2 injected at 20-1000 nM, 20 ul/min; 20 mM HEPES, 150 mM NaCl, 5 mM imidazole, 0.05% Tween-20, 10% glycerol, pH 7.5; equilibrium fit ('Evaluate EC50', TraceDrawer); three independent repeats on different chips.

Experiment [2] concerns the target pre-phosphorylated His10-BTLA ICD (aa 190-289) triple-tyrosine-mutant FFFY (human) (UniProt Q7Z6A9). The description is as above.
Experiment [3] concerns the target pre-phosphorylated His10-PD-1 ICD (aa 194-288) PD-1^FY (human) (UniProt Q15116). The description is as above.
The target of experiment [4] is His10-BTLA^ICD BTLA^FFYF, pre-phosphorylated (human) (UniProt Q7Z6A9). Nature of the experiment: SPR; OpenSPR (Nicoya); pre-phosphorylated His10-tagged PD-1 or BTLA ICD immobilised on a Ni sensor chip (about 1500 RU); SH2 injected at 20-1000 nM, 20 μl/min; 20 mM HEPES, 150 mM NaCl, 5 mM imidazole, 0.05% Tween-20, 10% glycerol, pH 7.5; equilibrium analysis (Evaluate EC50, TraceDrawer).

For experiment [5], the target named is pre-phosphorylated His10-PD-1 ICD (aa 194-288) PD-1^YF (human) (UniProt Q15116). Nature of the experiment: SPR; OpenSPR (Nicoya); pre-phosphorylated His10-tagged PD-1 ICD or BTLA ICD tyrosine mutant immobilised on a Ni sensor chip (about 1500 RU); SH2 injected at 20-1000 nM, 20 ul/min; 20 mM HEPES, 150 mM NaCl, 5 mM imidazole, 0.05% Tween-20, 10% glycerol, pH 7.5; equilibrium fit ('Evaluate EC50', TraceDrawer); three independent repeats on different chips.

Experiment [6] addresses His10-PD-1^ICD PD-1^FY, pre-phosphorylated (human) (UniProt Q15116). Nature of the experiment: SPR; OpenSPR (Nicoya); pre-phosphorylated His10-tagged PD-1 or BTLA ICD immobilised on a Ni sensor chip (about 1500 RU); SH2 injected at 20-1000 nM, 20 μl/min; 20 mM HEPES, 150 mM NaCl, 5 mM imidazole, 0.05% Tween-20, 10% glycerol, pH 7.5; equilibrium analysis (Evaluate EC50, TraceDrawer).

In experiment [7] the target is His10-PD-1^ICD PD-1^YF, pre-phosphorylated (human) (UniProt Q15116). The experiment is described as above.

Several values for one entry are separate records, joined by “and”; a condition that tells them apart may be missing. Identical values can stand only once.

What is called Kd is the constant that tells how readily two partners part at equilibrium. A higher Kd goes with a looser complex. For “SNAP-SHP1-cSH2 (from UniProt P29350 1-595) (domain or fragment)”, the Kd is 2000 nM and 1600 nM in experiment [1]; 760 nM and 1200 nM and 610 nM in experiment [2]; 1100 nM and 660 nM and 3200 nM in experiment [3].

SNAP-SHP1-nSH2 (domain or fragment) yielded a Kd in experiment [4] of 64 nM.

Regarding “SNAP-SHP1-nSH2 (from UniProt P29350 1-595) (domain or fragment)”, the Kd in experiment [5] was 200 nM and 210 nM and 400 nM; in experiment [1], 50 nM and 73 nM and 68 nM; in experiment [3] it was 72 nM and 110 nM and 88.3 nM.

In the case of SNAP-SHP2-cSH2 (domain or fragment), the Kd amounted to 100 nM in experiment [6] and 1400 nM in experiment [7].

Consider “SNAP-SHP2-cSH2 (from UniProt Q06124 1-593) (domain or fragment)”, for which the Kd in experiment [5] is 1900 nM and 770 nM and 1400 nM; in experiment [3] it was 83 nM and 77 nM and 130 nM.

For the substance SNAP-SHP2-nSH2 (domain or fragment), the Kd in experiment [6] was 140 nM; in experiment [7], 380 nM.

With “SNAP-SHP2-nSH2 (from UniProt Q06124 1-593) (domain or fragment)”, the Kd in experiment [5] is 270 nM and 420 nM and 460 nM; in experiment [1], 430 nM and 270 nM; in experiment [3] it was 120 nM and 110 nM and 200 nM.
